Assay results taken from the supplement of paper PMC10065799, “High-throughput profiling of sequence recognition by tyrosine kinases and SH2 domains using bacterial peptide display” (eLife, 2023).

Legend:
AncSZ = experiment: phosphorylation enrichment, bacterial display (enrichment ratio); higher = better substrate or ligand; peptides without Tyr show the background
Fer (mouse) = experiment: as above
Hck = Hck (UniProt P08631); experiment: as above
EPHB2 = EPHB2 (UniProt P29323); experiment: as above
Chain of EPHB2 (P29323 whole entry, looked up): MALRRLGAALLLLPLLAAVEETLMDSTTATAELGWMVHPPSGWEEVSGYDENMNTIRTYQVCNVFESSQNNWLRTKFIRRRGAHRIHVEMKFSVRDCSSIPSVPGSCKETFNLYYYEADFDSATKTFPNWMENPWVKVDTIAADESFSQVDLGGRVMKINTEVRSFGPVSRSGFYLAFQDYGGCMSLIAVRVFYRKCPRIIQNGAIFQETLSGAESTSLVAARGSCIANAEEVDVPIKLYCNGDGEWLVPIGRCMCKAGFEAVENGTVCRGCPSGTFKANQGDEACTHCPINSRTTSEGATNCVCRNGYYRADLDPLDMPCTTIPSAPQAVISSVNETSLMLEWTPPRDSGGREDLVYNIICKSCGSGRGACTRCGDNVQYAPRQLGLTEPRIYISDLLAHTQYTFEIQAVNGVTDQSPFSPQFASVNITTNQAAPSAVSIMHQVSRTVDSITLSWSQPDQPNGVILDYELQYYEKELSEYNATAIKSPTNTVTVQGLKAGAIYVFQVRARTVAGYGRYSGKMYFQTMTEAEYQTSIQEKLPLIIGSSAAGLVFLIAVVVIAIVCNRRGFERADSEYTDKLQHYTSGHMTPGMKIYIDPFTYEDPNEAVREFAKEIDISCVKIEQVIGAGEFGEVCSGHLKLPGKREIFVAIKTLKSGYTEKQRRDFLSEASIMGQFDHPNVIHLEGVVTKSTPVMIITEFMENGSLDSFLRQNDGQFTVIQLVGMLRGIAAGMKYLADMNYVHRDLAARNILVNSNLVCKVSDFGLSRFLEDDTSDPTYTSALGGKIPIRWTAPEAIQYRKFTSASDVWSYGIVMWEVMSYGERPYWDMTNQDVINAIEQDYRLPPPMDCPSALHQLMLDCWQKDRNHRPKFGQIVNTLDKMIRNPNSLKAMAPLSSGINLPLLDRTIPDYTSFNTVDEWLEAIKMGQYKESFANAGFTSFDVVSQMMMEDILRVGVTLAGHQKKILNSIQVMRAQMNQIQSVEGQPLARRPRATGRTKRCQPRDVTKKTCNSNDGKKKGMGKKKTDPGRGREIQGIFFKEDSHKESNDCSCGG

MERTK = MERTK (UniProt Q12866); experiment: as above
Fyn = Fyn (UniProt P06241); experiment: as above
Chain of Fyn (P06241 whole entry, looked up): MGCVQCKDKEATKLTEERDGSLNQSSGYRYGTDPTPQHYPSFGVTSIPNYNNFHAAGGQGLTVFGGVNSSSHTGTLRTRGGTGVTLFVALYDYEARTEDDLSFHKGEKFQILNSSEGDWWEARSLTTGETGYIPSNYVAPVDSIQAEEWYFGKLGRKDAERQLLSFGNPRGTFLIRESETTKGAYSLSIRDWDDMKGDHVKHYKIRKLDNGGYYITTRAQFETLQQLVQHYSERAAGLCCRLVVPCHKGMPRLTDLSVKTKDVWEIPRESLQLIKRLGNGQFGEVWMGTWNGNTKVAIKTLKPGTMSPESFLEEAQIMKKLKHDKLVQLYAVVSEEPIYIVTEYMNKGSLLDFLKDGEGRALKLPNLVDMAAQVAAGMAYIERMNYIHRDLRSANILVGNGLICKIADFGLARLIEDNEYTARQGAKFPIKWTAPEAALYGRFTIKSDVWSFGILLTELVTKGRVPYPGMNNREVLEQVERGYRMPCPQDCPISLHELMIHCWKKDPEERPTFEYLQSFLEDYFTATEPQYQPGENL

c-Abl (mouse) = experiment: as above
FGFR1 = FGFR1 (UniProt P11362); experiment: as above
Chain of FGFR1 (P11362 whole entry, looked up): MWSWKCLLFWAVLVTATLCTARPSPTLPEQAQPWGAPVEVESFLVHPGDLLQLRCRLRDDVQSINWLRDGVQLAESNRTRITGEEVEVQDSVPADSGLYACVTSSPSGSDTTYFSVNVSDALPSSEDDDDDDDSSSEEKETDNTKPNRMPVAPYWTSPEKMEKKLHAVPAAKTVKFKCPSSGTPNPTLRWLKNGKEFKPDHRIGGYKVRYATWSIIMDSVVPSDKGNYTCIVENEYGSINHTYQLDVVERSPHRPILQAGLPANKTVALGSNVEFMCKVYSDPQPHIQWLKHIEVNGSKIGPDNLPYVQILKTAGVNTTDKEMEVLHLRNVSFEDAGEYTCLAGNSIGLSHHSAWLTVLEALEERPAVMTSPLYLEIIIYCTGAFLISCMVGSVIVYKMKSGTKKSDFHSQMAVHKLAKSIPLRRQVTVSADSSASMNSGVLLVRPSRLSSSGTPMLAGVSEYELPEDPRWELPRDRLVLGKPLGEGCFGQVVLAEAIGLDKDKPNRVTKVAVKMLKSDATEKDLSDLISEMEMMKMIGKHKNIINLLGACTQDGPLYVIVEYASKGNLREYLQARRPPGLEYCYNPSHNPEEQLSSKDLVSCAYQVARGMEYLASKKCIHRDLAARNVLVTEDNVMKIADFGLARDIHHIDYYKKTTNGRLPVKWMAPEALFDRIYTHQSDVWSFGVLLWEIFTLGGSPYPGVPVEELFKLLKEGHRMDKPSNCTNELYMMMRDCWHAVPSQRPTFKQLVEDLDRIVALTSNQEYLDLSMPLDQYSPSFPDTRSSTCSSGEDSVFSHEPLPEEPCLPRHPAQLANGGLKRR

FGFR3 = FGFR3 (UniProt P22607); experiment: as above
Fes = Fes (UniProt P07332); experiment: as above
Chain of Fes (P07332 whole entry, looked up): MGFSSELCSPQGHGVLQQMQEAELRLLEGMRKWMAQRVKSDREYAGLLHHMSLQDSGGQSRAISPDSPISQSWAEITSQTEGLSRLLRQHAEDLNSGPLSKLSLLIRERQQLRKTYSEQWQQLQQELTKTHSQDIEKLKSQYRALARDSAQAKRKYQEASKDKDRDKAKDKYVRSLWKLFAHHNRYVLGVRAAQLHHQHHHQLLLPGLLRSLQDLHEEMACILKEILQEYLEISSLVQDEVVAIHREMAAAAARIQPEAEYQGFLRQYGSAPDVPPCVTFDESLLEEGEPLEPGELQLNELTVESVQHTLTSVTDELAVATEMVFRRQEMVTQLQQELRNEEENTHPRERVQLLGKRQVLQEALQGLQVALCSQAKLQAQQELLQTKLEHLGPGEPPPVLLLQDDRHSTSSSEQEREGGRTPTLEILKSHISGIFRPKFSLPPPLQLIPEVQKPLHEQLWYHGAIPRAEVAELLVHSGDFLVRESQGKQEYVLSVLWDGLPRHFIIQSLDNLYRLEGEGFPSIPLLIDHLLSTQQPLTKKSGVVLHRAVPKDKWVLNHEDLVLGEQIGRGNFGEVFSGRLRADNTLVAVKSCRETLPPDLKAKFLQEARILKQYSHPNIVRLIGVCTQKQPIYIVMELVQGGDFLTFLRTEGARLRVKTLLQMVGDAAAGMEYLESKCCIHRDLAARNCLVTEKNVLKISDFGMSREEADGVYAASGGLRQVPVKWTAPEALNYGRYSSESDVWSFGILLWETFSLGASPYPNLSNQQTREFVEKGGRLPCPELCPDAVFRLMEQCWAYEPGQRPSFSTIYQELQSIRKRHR

EPHB1 = EPHB1 (UniProt P54762); experiment: as above
c-Src = experiment: as above
Jak2 = Jak2 (UniProt O60674); experiment: as above
Chain of Jak2 (O60674 whole entry, looked up): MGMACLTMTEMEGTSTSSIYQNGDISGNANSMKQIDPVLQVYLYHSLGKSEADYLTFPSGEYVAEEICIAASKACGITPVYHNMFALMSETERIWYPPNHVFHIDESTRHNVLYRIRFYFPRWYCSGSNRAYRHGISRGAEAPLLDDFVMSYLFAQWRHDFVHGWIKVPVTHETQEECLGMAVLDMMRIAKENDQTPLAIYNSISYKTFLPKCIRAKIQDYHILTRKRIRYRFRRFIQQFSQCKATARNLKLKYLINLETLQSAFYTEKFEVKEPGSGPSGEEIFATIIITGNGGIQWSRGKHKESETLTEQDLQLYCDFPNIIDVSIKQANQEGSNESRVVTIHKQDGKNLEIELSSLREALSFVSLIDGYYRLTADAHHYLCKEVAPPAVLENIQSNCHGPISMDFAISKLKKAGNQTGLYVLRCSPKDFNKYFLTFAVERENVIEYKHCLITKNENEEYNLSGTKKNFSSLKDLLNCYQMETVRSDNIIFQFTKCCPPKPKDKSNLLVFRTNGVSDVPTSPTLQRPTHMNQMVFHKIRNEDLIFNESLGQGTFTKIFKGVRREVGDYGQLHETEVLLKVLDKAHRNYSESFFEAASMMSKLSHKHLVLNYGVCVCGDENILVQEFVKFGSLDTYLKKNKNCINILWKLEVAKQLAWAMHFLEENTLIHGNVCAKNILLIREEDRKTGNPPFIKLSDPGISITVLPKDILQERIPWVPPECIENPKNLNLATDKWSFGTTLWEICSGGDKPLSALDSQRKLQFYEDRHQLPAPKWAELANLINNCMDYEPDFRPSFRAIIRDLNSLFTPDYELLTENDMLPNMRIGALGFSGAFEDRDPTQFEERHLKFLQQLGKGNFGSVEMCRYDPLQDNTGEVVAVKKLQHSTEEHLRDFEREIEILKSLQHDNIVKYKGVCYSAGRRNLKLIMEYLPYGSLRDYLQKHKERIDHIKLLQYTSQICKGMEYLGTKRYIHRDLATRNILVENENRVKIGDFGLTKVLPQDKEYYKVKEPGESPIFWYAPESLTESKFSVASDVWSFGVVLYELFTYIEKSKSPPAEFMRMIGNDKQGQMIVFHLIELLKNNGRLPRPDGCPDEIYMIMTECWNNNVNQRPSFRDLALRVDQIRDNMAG

Grb2 SH2 = Grb2 SH2 (UniProt P62993); experiment: SH2 binding enrichment of the phosphorylated peptide, bacterial display (enrichment ratio); higher = better substrate or ligand; peptides without Tyr show the background
SHP2-C SH2 = experiment: as above
c-Src SH2 = experiment: as above
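Wherever SH2 binding enrichment of the phosphorylated peptide, bacterial display is given: peptide library displayed on the E. coli surface as eCPX fusions, selected cells deep-sequenced, score is each peptide's frequency after selection divided by its frequency in the input.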
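Wherever phosphorylation enrichment, bacterial display is given: 11-residue human phosphosite peptides and single-mutation variants displayed on the E. coli surface, counted by deep sequencing, each peptide's frequency after selection divided by its frequency in the unselected input library; frequency after pTyr selection over input frequency; kinase dosed for 20-30% of maximal phosphorylation in three min.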

Chain of Hck (P08631 whole entry, looked up): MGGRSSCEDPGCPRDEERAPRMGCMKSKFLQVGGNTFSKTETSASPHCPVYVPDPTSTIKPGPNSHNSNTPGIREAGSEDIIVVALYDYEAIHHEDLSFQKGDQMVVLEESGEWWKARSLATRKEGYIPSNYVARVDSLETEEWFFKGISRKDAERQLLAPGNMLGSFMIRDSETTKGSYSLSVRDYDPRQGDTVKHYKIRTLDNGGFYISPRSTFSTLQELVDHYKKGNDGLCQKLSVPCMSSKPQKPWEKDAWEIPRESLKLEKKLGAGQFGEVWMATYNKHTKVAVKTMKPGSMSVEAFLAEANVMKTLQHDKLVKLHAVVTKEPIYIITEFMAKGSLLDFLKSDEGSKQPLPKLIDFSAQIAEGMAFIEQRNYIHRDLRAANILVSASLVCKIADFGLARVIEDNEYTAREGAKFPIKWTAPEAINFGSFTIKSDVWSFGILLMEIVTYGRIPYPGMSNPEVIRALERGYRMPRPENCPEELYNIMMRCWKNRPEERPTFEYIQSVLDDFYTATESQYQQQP

Row | SH2 binding enrichment (Grb2 SH2) | SH2 binding enrichment (SHP2-C SH2) | SH2 binding enrichment (c-Src SH2) | Sequence | phosphorylation enrichment (AncSZ) | phosphorylation enrichment (Fer (mouse)) | phosphorylation enrichment (Hck) | phosphorylation enrichment (EPHB2) | phosphorylation enrichment (MERTK) | phosphorylation enrichment (Fyn) | phosphorylation enrichment (c-Abl (mouse)) | phosphorylation enrichment (FGFR1) | phosphorylation enrichment (FGFR3) | phosphorylation enrichment (Fes) | phosphorylation enrichment (EPHB1) | phosphorylation enrichment (c-Src) | phosphorylation enrichment (Jak2)
1 | 0.91 | 0.587 | 0.484 | HSDYQYSQRSQ [PKP2_Y168] | 0.821 | 0.365 | 0.353 | 0.645 | 0.501 | 0.39 | 0.749 | 0.344 | 0.377 | 0.587 | 0.495 | 0.519 | 1.11
2 | 0.797 | 0.7 | 0.466 | MSNFAYVKREV [SCN1A_Y1694] | 0.729 | 0.419 | 0.552 | 0.437 | 0.471 | 0.418 | 0.516 | 0.447 | 0.61 | 0.986 | 0.457 | 0.388 | 0.651
3 | 0.729 | 0.525 | 0.837 | TRTDAYAVSSF | 0.78 | 0.405 | 0.357 | 0.464 | 0.388 | 0.419 | 0.645 | 0.567 | 0.534 | 0.657 | 0.383 | 0.443 | 1.08
4 | 0.627 | 0.721 | 0.355 | RFVTRYIFNRE [HLA-DQB1_Y62_YF] | 1.2 | 0.615 | 0.655 | 0.591 | 0.643 | 0.76 | 0.528 | 0.923 | 0.796 | 1.68 | 0.536 | 0.593 | 0.921
5 | 0.765 | 0.765 | 0.401 | SGGMDYGMVGG [TNRC6B_Y1382] | 0.571 | 0.389 | 0.702 | 0.806 | 0.384 | 2 | 0.52 | 0.404 | 0.494 | 0.574 | 0.471 | 1.95 | 0.517
6 | 0.89 | 0.789 | 0.633 | AEFGLYRAMVR [VSX2_Y222_G223R_YF] | 0.753 | 0.431 | 4.12 | 0.595 | 0.843 | 0.821 | 1.48 | 0.484 | 0.673 | 0.779 | 0.731 | 0.855 | 0.726
7 | 0.882 | 0.81 | 0.441 | DQVEQYNKELE [LMNA_Y259_K260N] | 1.09 | 0.494 | 0.581 | 0.672 | 0.418 | 0.558 | 0.692 | 0.552 | 0.762 | 1.23 | 0.683 | 0.459 | 1.17
8 | 0.746 | 0.679 | 0.453 | ECKLRYSRKEG [PTPN11_Y263_L262R] | 0.527 | 0.376 | 0.503 | 0.533 | 0.523 | 0.52 | 0.452 | 0.484 | 0.53 | 0.606 | 0.457 | 0.423 | 0.378
9 | 0.584 | 0.657 | 0.609 | FGLPRYRWLTH [TSPAN12_Y143_YF] | 1.01 | 0.446 | 0.526 | 0.692 | 0.585 | 0.552 | 0.616 | 0.529 | 0.468 | 0.858 | 0.526 | 0.448 | 0.687
10 | 1.5 | 1.23 | 1.24 | LFSINYLHFGD [KDM4C_Y201_E206D_YF] | 1.32 | 0.813 | 0.71 | 0.538 | 0.783 | 0.561 | 0.968 | 1.07 | 1.22 | 1.56 | 1.19 | 0.612 | 1.56
11 | 1.14 | 1.1 | 0.889 | FQQLFYLLQIN [IQGAP2_Y890_T894I_YF] | 1.51 | 0.658 | 0.617 | 0.815 | 0.611 | 0.541 | 1.06 | 0.648 | 1.01 | 1.76 | 0.82 | 0.639 | 1.47
12 | 0.842 | 2.08 | 8.16 | GTCGGYCSVLG [RAB18_Y202_A198T] | 0.532 | 0.389 | 0.388 | 0.353 | 0.527 | 0.397 | 0.401 | 0.37 | 0.488 | 0.488 | 0.344 | 0.42 | 0.451
13 | 0.71 | 1.41 | 8.46 | LTYHMYADPNI [SOS1_Y618_F623I] | 2.56 | 1.23 | 4.78 | 6.28 | 3.73 | 6.07 | 3.47 | 4.27 | 3.13 | 1.59 | 5.79 | 9.95 | 2.03
14 | 1.14 | 0.705 | 0.976 | RLLRGYNQSAF [HLA-C_Y137_D138N_YF] | 0.54 | 0.268 | 0.402 | 0.417 | 0.56 | 0.458 | 0.316 | 0.665 | 0.547 | 0.804 | 0.503 | 0.424 | 0.476
15 | 1.71 | 1.27 | 1.13 | RHLQEYQDLLN [GFAP_Y349] | 0.737 | 0.389 | 0.468 | 0.45 | 0.392 | 0.616 | 0.417 | 0.418 | 0.477 | 0.807 | 0.513 | 0.399 | 0.565
16 | 1 | 0.896 | 0.721 | AACQHYGVRTC [NR4A2_Y275] | 0.592 | 0.379 | 0.421 | 0.412 | 0.406 | 0.452 | 0.424 | 0.472 | 0.405 | 0.581 | 0.381 | 0.408 | 0.513
17 | 0.765 | 0.596 | 0.465 | VDGSLYKTHPQ [HK1_Y417] | 0.472 | 0.421 | 0.365 | 0.389 | 0.378 | 0.44 | 0.425 | 0.338 | 0.419 | 0.556 | 0.436 | 0.385 | 0.409
18 | 0.851 | 0.663 | 0.345 | PLFRVYGLESL [INSR_Y94_L89P] | 1.2 | 0.571 | 0.574 | 0.673 | 0.508 | 1.03 | 1.15 | 0.58 | 0.686 | 1.43 | 0.803 | 0.864 | 1.43
19 | 0.931 | 0.783 | 0.553 | KLNNEYLELNY [MME_Y497] | 1.08 | 0.417 | 0.627 | 1.01 | 0.449 | 0.633 | 0.635 | 4.67 | 3.27 | 0.892 | 0.925 | 0.679 | 0.861

The remaining lines, values behind:

Row | Sequence | SH2 binding enrichment (Grb2 SH2) | SH2 binding enrichment (SHP2-C SH2) | SH2 binding enrichment (c-Src SH2) | phosphorylation enrichment (AncSZ) | phosphorylation enrichment (Fer (mouse)) | phosphorylation enrichment (Hck) | phosphorylation enrichment (EPHB2) | phosphorylation enrichment (MERTK) | phosphorylation enrichment (Fyn) | phosphorylation enrichment (c-Abl (mouse)) | phosphorylation enrichment (FGFR1) | phosphorylation enrichment (FGFR3) | phosphorylation enrichment (Fes) | phosphorylation enrichment (EPHB1) | phosphorylation enrichment (c-Src) | phosphorylation enrichment (Jak2)
20 | WHHIFYNELRV [ACTG1_Y91_T89I] | 0.701 | 0.638 | 0.512 | 1.14 | 0.536 | 0.569 | 0.725 | 0.444 | 0.388 | 0.805 | 0.527 | 0.911 | 1.33 | 0.663 | 0.407 | 1.13
21 | DEFLEHRRIVG [FAM221A_Y20_Y20H_YF] | 0.813 | 0.574 | 0.531 | 0.747 | 0.387 | 0.47 | 0.494 | 0.48 | 0.425 | 0.58 | 0.45 | 0.502 | 0.902 | 0.447 | 0.409 | 0.716
22 | LPPREYVVVPS [CAPN1_Y494_G492R] | 0.918 | 1.03 | 1.17 | 2.29 | 1.73 | 1.73 | 4.02 | 0.631 | 1.41 | 0.726 | 2.83 | 2.46 | 2.17 | 3.78 | 0.48 | 1.04
23 | DPADRYLTEQY [CDKL5_Y286_C291Y] | 1 | 0.944 | 0.429 | 0.899 | 0.39 | 0.497 | 0.487 | 0.402 | 0.478 | 0.806 | 0.454 | 0.597 | 1.15 | 0.398 | 0.477 | 0.965
24 | WVFNHYRCIIW [BRCA2_Y2624_W2626C_YF] | 0.82 | 0.755 | 0.588 | 1.28 | 0.589 | 0.574 | 0.644 | 0.538 | 0.482 | 1.04 | 0.498 | 0.956 | 1.67 | 0.885 | 0.497 | 1.41
25 | YLQEIHNSNNQ [FGG_Y140_Y140H] | 0.802 | 0.871 | 0.578 | 0.618 | 0.349 | 0.432 | 0.431 | 0.484 | 0.431 | 0.445 | 0.404 | 0.63 | 0.63 | 0.427 | 0.414 | 0.563
26 | VNLVLHLSIAK [FBXO15_Y496_Y496H] | 0.652 | 0.511 | 0.351 | 1.15 | 0.799 | 0.588 | 0.609 | 0.391 | 0.492 | 0.88 | 0.476 | 0.85 | 1.36 | 0.583 | 0.446 | 1.36
27 | YIRRDYEACKA [BBS4_Y48_K46R] | 0.48 | 0.917 | 0.514 | 0.765 | 0.426 | 0.509 | 0.685 | 0.435 | 0.572 | 0.64 | 0.633 | 0.578 | 0.807 | 0.897 | 0.706 | 0.75
28 | EKLIQYCQSKS [AKR1B1_Y199_G204S] | 0.964 | 0.755 | 0.609 | 0.679 | 0.476 | 0.46 | 0.588 | 0.395 | 0.475 | 0.638 | 0.459 | 0.642 | 0.807 | 0.584 | 0.448 | 0.562
29 | EIPTQYEAMAS [GFAP_Y242_R239P] | 0.674 | 0.629 | 2.5 | 0.982 | 0.662 | 0.596 | 0.577 | 0.445 | 0.487 | 0.615 | 0.536 | 0.694 | 1.04 | 0.853 | 0.405 | 0.802
30 | PQGVSYIYTID [DCX_Y103_R102S] | 1.05 | 13 | 0.644 | 1.62 | 0.728 | 5.22 | 0.856 | 3.15 | 10.6 | 1.32 | 1.06 | 1.64 | 1.79 | 0.985 | 6.93 | 1.55
31 | MCDSHYLESRS [CLK1_Y56] | 1.04 | 0.719 | 0.675 | 0.578 | 0.473 | 0.35 | 0.535 | 0.426 | 0.449 | 0.493 | 0.509 | 0.718 | 0.81 | 0.495 | 0.424 | 0.618
32 | SAASGYSDVTD [DTX2_Y425_T421A] | 1.98 | 0.979 | 6.28 | 0.866 | 0.535 | 0.458 | 0.589 | 0.294 | 0.232 | 0.446 | 0.633 | 0.569 | 0.95 | 0.646 | 0.338 | 0.963
33 | ESLSSYRESAK [APOC2_Y47_W48R] | 0.858 | 0.795 | 0.556 | 0.63 | 0.314 | 0.305 | 0.317 | 0.391 | 0.342 | 0.495 | 0.382 | 0.456 | 0.529 | 0.252 | 0.303 | 0.487
